Measured values from article PMC3664818 (Nucleic Acids Research, 2013).

Biological target: T1, (His)6-Lif1-K301R (S. cerevisiae, UniProt P53150 1-421, K301R)
T1 sequence (looked up): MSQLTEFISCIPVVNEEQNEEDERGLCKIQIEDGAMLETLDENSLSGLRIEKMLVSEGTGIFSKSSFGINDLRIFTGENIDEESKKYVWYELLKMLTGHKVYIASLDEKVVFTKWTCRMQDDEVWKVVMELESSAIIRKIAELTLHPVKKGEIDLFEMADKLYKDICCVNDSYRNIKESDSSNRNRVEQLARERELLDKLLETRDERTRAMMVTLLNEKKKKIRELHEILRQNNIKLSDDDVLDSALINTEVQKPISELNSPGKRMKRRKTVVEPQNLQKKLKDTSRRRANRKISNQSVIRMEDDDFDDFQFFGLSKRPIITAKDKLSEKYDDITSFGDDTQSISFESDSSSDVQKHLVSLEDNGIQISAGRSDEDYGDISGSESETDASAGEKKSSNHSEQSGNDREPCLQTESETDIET
Experiment: pull-down

binding result: binds
B1: MBP-Nej1 (natural protein, S. cerevisiae, UniProt Q06148 1-342, looked up)
chain: MDSELKGQQLSDAEWCVKKINGEGNCLLLFLPMSSPTTIVMIVLVSLERLVPYVFKLSQTQLSQQCQSQGFTDSISLNLIKLKLMDILQAPQEINQIGLVDSNLVFSFDVSADITVSINSVPSHVTKDMFYMILQSLCMLLLKLVNLSTQYHYVQRDILNEKQKCLDFLLISLRDLDGGSKVISQWAPENSKNYESLQQCTDDDIIKKLLHKGKFQHQEFLADSLKTLLSLRNKFQDVSRFEESGELNKKERVRFPAVNHFYNDDFELQADPTNEARPNSRGKIKPKTDFKPKSRESSTSSQLRLENFSESEATPEKTKSSSSLVEEYPQKKRKFGKVRIKN
